Target: T1, alpha-7 nicotinic receptor (human, UniProt P36544 23-502)
T1 construct: Endogenous receptor in human brain homogenate, captured by biotinylated BTX on SA-donor beads in the AlphaLISA; also called alpha-7 receptor
Assay: AlphaLISA of T14-alpha-7 complex in human hippocampal tissue lysate (biotinylated BTX on SA-donor beads, anti-T14 on acceptor beads)
Procedure: Samples were extracted from homogenized human brain tissue using PerkinElmer lysis buffer and the protein concentration determined using the BCA method. For 100 mg tissue homogenization, 1 mL of lysis buffer was used. Five cycles of 40 second pulse, and 10 second breaks, on a shielded homogenizer were used for each sample. Samples were centrifuged at […], 15000 rpm (15 minutes) for supernatants; these were diluted in PerkinElmer Assay buffer and used to measure T14-alpha-7 nicotinic receptor complexes in the presence of NBP14 (concentrations 0.065 μM-900 μM) with AlphaLISA following the manufacturer's protocol. The antibodies were biotinylated BTX on SA-donor beads and anti-rabbit T14 on acceptor beads; results read in an AlphaLISA Reader.

T1 sequence (P36544 23-502 limits assumed): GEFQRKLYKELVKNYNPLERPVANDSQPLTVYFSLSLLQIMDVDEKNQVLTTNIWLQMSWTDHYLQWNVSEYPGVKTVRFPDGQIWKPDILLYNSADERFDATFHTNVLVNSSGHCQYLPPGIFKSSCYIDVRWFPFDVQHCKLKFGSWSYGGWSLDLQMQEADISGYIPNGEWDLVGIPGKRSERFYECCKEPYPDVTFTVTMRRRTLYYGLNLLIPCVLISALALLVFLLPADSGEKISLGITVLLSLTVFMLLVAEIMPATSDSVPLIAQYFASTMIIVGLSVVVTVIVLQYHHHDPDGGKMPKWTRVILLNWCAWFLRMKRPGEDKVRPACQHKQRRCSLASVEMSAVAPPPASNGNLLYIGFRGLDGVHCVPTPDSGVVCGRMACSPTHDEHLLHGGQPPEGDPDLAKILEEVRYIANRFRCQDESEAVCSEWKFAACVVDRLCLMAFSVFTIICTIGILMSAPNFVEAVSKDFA

B1: T14 peptide (AChE-derived peptide, SEQ ID No:3) (peptide)
peptide: AEFHRWSSYMVHWK
notes: In the assays this was endogenous T14 in human brain tissue, CSF or plasma; Synthetic T14 served as the positive control and standard
B1: binds.

— patent publication US20240369578A1 (NEURO BIO, published 2024)
